This is an account of results in patent US20220332804A1 (CSL INNOVATION, published 2022).

Positions count from the first letter of the chain named.

Holding throughout (experiment): SPR, antibody captured, C2 as analyte;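 further: biacore SPR at 37 °C, anti-C2 mAbs captured via goat anti-human IgG on CM5 chips, double-referenced sensorgrams fit to a 1:1 kinetic or steady-state model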
In test [1] the target is T1, human C2 N325A (human, UniProt P06681 21-752).
T1 sequence: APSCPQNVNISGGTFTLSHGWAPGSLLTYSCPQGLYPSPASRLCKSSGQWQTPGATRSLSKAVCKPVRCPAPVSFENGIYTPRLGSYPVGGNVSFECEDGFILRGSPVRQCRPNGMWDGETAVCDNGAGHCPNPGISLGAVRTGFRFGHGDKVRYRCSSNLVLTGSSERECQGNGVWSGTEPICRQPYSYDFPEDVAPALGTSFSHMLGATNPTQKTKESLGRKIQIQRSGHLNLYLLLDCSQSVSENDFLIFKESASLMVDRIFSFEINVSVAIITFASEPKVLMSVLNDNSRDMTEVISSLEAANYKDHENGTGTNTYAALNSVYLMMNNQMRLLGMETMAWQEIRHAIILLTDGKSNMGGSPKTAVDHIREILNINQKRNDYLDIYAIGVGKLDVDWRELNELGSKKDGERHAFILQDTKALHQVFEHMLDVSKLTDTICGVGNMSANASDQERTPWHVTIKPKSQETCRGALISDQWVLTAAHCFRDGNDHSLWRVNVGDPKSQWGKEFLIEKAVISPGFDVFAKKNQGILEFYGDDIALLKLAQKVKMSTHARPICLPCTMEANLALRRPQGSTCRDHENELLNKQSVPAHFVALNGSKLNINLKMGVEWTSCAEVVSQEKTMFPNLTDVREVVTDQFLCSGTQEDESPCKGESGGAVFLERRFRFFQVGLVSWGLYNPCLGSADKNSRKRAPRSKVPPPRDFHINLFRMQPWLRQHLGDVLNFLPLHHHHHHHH

In test [2] the target is T2, human C2 L271A (human, UniProt P06681 21-752).
T2 sequence: T1 sequence with L251A, A305N

Test [3] deals with T3, human C2 K715A (human, UniProt P06681 21-752).
T3 sequence: T1 sequence with A305N, K695A

Test [4] has as its target T4, human C2 P723A (human, UniProt P06681 21-752).
T4 sequence: T1 sequence with A305N, P703A

B1: RF16-226 (antibody, human IgG4 S228P, lambda)
heavy: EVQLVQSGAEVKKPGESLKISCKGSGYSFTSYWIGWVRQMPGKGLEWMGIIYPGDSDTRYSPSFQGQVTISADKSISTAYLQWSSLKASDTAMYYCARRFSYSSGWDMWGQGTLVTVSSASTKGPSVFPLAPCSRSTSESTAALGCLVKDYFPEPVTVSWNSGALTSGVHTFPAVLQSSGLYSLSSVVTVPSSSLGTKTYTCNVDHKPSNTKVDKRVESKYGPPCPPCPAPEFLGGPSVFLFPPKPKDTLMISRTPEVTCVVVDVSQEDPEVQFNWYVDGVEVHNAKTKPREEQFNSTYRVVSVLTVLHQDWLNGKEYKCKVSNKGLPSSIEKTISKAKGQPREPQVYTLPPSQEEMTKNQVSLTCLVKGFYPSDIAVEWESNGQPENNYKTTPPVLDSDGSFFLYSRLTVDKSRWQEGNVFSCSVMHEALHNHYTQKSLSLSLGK
light: SYELTQPPSVSVSPGQTARITCSGDALTSKYVAWYQQKSGLAPLLVIYEDTRRPSGIPAKFSGSSSGSVATLTISGAHGDDEADYYCYSTDASGHQRVFGGGTKLTVLSQPKAAPSVTLFPPSSEELQANKATLVCLISDFYPGAVTVAWKADGSPVKAGVETTKPSKQSNNKYAASSYLSLTPEQWKSHRSYSCQVTHEGSTVEKTVAPTECS
notes: pH-dependent anti-C2 antibody from a phage display library; also called WT
Consider B1, for which the Kd in test [1] stood at 51.3 nM; in test [2], 10.8 nM; in test [3], 16.2 nM; in test [4], 122 nM.
